According to PMC5147500 (Cell, 2016):
Non-standard residues stand in square brackets, D forms with d. No end group written: not given here. SeMet = C[Se]CC[C@H](N)C(=O)O

Legend:
full-length human SNX3 = full-length human SNX3 (human, UniProt O60493-1 1-162); assay: crystal structure
[1] = biological target: VPS26A residues 1–317, the VPS26 part of the fusion VPS26(1–317)-DMT1(545–568) (human, UniProt O75436-1 1-317); assay: crystal structure

Binder	binding result (full-length human SNX3)	binding result [1]
{VPS26(1–321)}-TAQPELYLLNT[SeMet] (peptide, UniProt P49281 549-560, looked up) [DMT1-II recycling signal residues 549–560, the DMT1 part of the fusion VPS26(1–321)-DMT1(549–560)]	binds	–
{VPS26(1–321)}-TAQPELYL[SeMet]NT[SeMet] (peptide, UniProt P49281 549-560, looked up)	binds	–
{VPS26(1–317)}-HLGLTAQPELYLLNTMDADSLVSR (peptide, UniProt P49281 545-568, looked up) [DMT1-II recycling signal residues 545–568, the DMT1 part of the fusion VPS26(1–317)-DMT1(545–568)]	–	binds
